Here are results for six molecules from patent US20240270846A1 (published 2024).

Test [1] concerns the target T1, biotin-labeled human CD137 fused to human IgG1 Fc fragment (human, biotin-labeled).
T1 construct: Immobilised on streptavidin beads through biotin; also called human CD137-Fc; biotin-human CD137-Fc
The experiment in a line: competitive bead ELISA, IgG on biotin-human CD137-Fc, competitor free CD3 epsilon peptide 125 pmol/well. A general note: ELISA stands for enzyme-linked immunosorbent assay.

Test [2] has as its target T1, biotin-labeled human CD137 fused to …. The experiment in a line: bead ELISA, IgG on biotin-human CD137-Fc on streptavidin beads, no free CD3e.
The target is the same in test [3]. The experiment in a line: competitive bead ELISA, decrease of signal on biotin-human CD137-Fc with 125 pmol/well free CD3 epsilon peptide against 0.
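Wherever ELISA signal, free CD3e 125 pmol/well is given: bead ELISA on streptavidin-coated magnetic beads, with the signal read as well fluorescence 2 min after APS-5 addition.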

B1: dBBDu205 (antibody, human IgG1, V domains shown)
VH: QVQLVESGGGLVQPGRSLRLSCAASGFTFSNAWMHWVRQAPGKGLEWVAQIKDRSQLYAAYYAPSVKGRFTISRDDSKNSIYLQMNSLKTEDTAVYYCHYVHYASASTVLPAFGVDAWGQGTTVTVSS
VL: DIVMTQSPLSLPVTPGEPASISCRSSQSLVHSNRNTYLHWYQQKPGQAPRLLIYKVSNRFSGVPDRFSGSGSGTDFTLKISRVEAEDVGVYYCGQGTQVPYTFGQGTKLEIK
notes: IgG: VH joined to human IgG1 CH1-Fc, GLS3000 as light chain
With B1, in test [1], the “ELISA signal, free CD3e 125 pmol/well” value stood at 2190. Moreover, the “ELISA signal, free CD3e 0 pmol/well” value in test [2] is 45200. Further, the Signal decrease in test [3] came to 95.2%.

B2: dBBDu125 (antibody, human IgG1, V domains shown)
VH: QVQLVESGGGLVQPGRSLRLSCAASGFTFSIAWMHWVRQAPGKGLEWVAQIKDKVNGYTAYYAESVKGRFTISRDDSKNSIYLQMNSLKTEDTAVYYCRYVHYAAYYDVLGYGGVDAWGQGTTVTVSS
VL: DIVMTQSPLSLPVTPGEPASISCRSSQSLVHSNRNTYLHWYQQKPGQAPRLLIYKVSNRFSGVPDRFSGSGSGTDFTLKISRVEAEDVGVYYCGQGTQVPYTFGQGTKLEIK
notes: IgG: VH joined to human IgG1 CH1-Fc, GLS3000 as light chain; also called DXDU01_3_#019; DXDU01_3 #019
For B2, the “ELISA signal, free CD3e 125 pmol/well” value in test [1] came to 2060. Further, in test [2], the “ELISA signal, free CD3e 0 pmol/well” value came out at 61400. Besides, in test [3], the Signal decrease came to 96.7%.

B3: dBBDu174 (antibody, human IgG1, V domains shown)
VH: QVQLVESGGGLVQPGRSLRLSCAASGFTFSSAWMHWVRQAPGKGLEWVAQIKDRASAYNAYYAESVKGRFTISRDDSKNSIYLQMNSLKTEDTAVYYCRYVHYPSYVSFLPYYGVDAWGQGTTVTVSS
VL: DIVMTQSPLSLPVTPGEPASISCRSSQSLVHSNRNTYLHWYQQKPGQAPRLLIYKVSNRFSGVPDRFSGSGSGTDFTLKISRVEAEDVGVYYCGQGTQVPYTFGQGTKLEIK
notes: as for B1
As to B3, the “ELISA signal, free CD3e 125 pmol/well” value in test [1] was determined as 1880. Further, the “ELISA signal, free CD3e 0 pmol/well” value in test [2] came out at 4800. The same molecule registered a Signal decrease in test [3] of 60.8%.

B4: dBBDu217 (antibody, human IgG1, V domains shown)
VH: QVQLVESGGGLVQPGRSLRLSCAASGFTFSNAWMHWVRQAPGKGLEWVAQIKDRQQGYATYYAPSVKGRFTISRDDSKNSIYLQMNSLKTEDTAVYYCRFVHYHLAGYGYYGVDAWGQGTTVTVSS
VL: DIVMTQSPLSLPVTPGEPASISCRSSQSLVHSNRNTYLHWYQQKPGQAPRLLIYKVSNRFSGVPDRFSGSGSGTDFTLKISRVEAEDVGVYYCGQGTQVPYTFGQGTKLEIK
notes: as for B1
For B4, the “ELISA signal, free CD3e 125 pmol/well” value in test [1] amounted to 2420. Also, the “ELISA signal, free CD3e 0 pmol/well” value in test [2] came to 19100. This molecule showed a Signal decrease in test [3] of 87.3%.

B5: dBBDu222 (antibody, human IgG1, V domains shown)
VH: QVQLVESGGGLVQPGRSLRLSCAASGFTISSAWMHWVRQAPGKGLEWVAQIKDRANGYAAYYAPSVKGRFTISRDDSKNSIYLQMNSLKTEDTAVYYCRYVHYATAYDGFYGFGVDAWGQGTTVTVSS
VL: DIVMTQSPLSLPVTPGEPASISCRSSQSLVHSNRNTYLHWYQQKPGQAPRLLIYKVSNRFSGVPDRFSGSGSGTDFTLKISRVEAEDVGVYYCGQGTQVPYTFGQGTKLEIK
notes: as for B1
B5: the “ELISA signal, free CD3e 125 pmol/well” value in test [1] came out at 3240. Further, the “ELISA signal, free CD3e 0 pmol/well” value in test [2] is 7190. Moreover, the Signal decrease in test [3] came out at 55%.

B6: Du115/DUL008 (antibody, V domains shown)
VH: QVQLVESGGGLVQPGRSLRLSCAASGFTFSNAWMHWVRQAPGKGLEWVAQIKDKANSYNTYYAPSVKGRFTISRDDSKNSIYLQMNSLKTEDTAVYYCRYVHYGSSYGFLFAGYGVDAWGQGTTVTVSS
VL: DIVMTQSPLSLPVTPGEPASISCQSSEELLHANRKTYLHWYQQKPGQAPRLLIYKVQNRFSGVPDRFSGSGSGTDFTLKISRVEAEDVGVYYCAQGTATPFTFGQGTKLEIK
notes: Human IgG1 format; also called dBBDu_115 with L008
Regarding B6, the “ELISA signal, free CD3e 125 pmol/well” value in test [1] stood at 2620. Also, the “ELISA signal, free CD3e 0 pmol/well” value in test [2] is 86200. Besides, the Signal decrease in test [3] stood at 97%.
